Reference: the supplement of paper PMC9112550, “Optimization of the antimicrobial peptide Bac7 by deep mutational scanning” (BMC Biology, 2022)

What follows are sequences tested on Escherichia coli TOP10 (assay: shrunken log2 fold change of peptide-encoding DNA abundance (4.5 h post-induction vs induction); higher = less antimicrobial activity (less host growth inhibition)). Conditions: time post-induction: 4.5 h; library: site-saturation at positions 5, 18, 19, 20.
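Note: peptides expressed intracellularly from a pBAD plasmid library in pooled LB shake-flask culture, induced with 0.3% L-arabinose, DNA abundance read by NGS, three biological replicates, DESeq2 with apeglm shrinkage.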

Sequence	shrunken log2 fold change
RRIRHRPPRLPRPRPRPNRLPRP	0.0234
RRIRSRPPRLPRPRPRPYDTPRP	-0.532
RRIRCRPPRLPRPRPRPCRIPRP	-0.271
RRIRCRPPRLPRPRPRPEYDPRP	-0.173
RRIRGRPPRLPRPRPRPMIKPRP	2.22
RRIRQRPPRLPRPRPRPHTGPRP	-0.18
RRIRMRPPRLPRPRPRPDLSPRP	1.58
RRIRERPPRLPRPRPRPSVLPRP	-0.312
RRIRHRPPRLPRPRPRPNNAPRP	-0.11
RRIRQRPPRLPRPRPRPMVAPRP	0.143
RRIRRRPPRLPRPRPRPGYTPRP	0.243
RRIRLRPPRLPRPRPRPKIDPRP	-0.042
RRIRDRPPRLPRPRPRPTHWPRP	0.192
RRIRDRPPRLPRPRPRPIPHPRP	-0.051
RRIRTRPPRLPRPRPRPQSSPRP	-0.08
RRIRYRPPRLPRPRPRPVINPRP	-0.338
RRIRPRPPRLPRPRPRPNACPRP	0.195
RRIRIRPPRLPRPRPRPYMKPRP	-0.495
RRIRCRPPRLPRPRPRPFVYPRP	-0.526
RRIRERPPRLPRPRPRPLNHPRP	-0.443
RRIRYRPPRLPRPRPRPAAYPRP	-0.387
RRIRGRPPRLPRPRPRPASVPRP	0.454
RRIRGRPPRLPRPRPRPPSVPRP	0.645
RRIRFRPPRLPRPRPRPPRGPRP	0.685
RRIRQRPPRLPRPRPRPRLTPRP	0.178

Sequence	shrunken log2 fold change
RRIRPRPPRLPRPRPRPSDAPRP	-0.0621
RRIRKRPPRLPRPRPRPHYSPRP	-0.257
RRIRMRPPRLPRPRPRPEWEPRP	-0.00306
RRIRYRPPRLPRPRPRPRFTPRP	-0.17
RRIRRRPPRLPRPRPRPIACPRP	0.0283
RRIRFRPPRLPRPRPRPDNCPRP	-0.0284
RRIRWRPPRLPRPRPRPAFLPRP	-0.0114
RRIRPRPPRLPRPRPRPHTGPRP	-0.0698
RRIRARPPRLPRPRPRPDPEPRP	0.939
RRIRIRPPRLPRPRPRPCNRPRP	-0.425
RRIRERPPRLPRPRPRPWNYPRP	-0.00131
RRIRQRPPRLPRPRPRPECAPRP	0.407
RRIRGRPPRLPRPRPRPPVIPRP	-0.0488
RRIRDRPPRLPRPRPRPFRCPRP	-0.0101
RRIRGRPPRLPRPRPRPFRWPRP	0.053
RRIRLRPPRLPRPRPRPNKLPRP	-0.307
RRIRKRPPRLPRPRPRPMGSPRP	0.0567
RRIRSRPPRLPRPRPRPTLTPRP	0.206
RRIRARPPRLPRPRPRPAEMPRP	-0.0298
RRIRSRPPRLPRPRPRPCHEPRP	0.0697
RRIRHRPPRLPRPRPRPAYEPRP	0.0981
RRIRWRPPRLPRPRPRPEMAPRP	1.14
RRIRMRPPRLPRPRPRPHIVPRP	0.0532
RRIRQRPPRLPRPRPRPNGPPRP	-0.011
RRIRNRPPRLPRPRPRPEPSPRP	0.145

Sequence	shrunken log2 fold change
RRIRDRPPRLPRPRPRPEPSPRP	0.885
RRIRFRPPRLPRPRPRPGDWPRP	0.666
RRIRSRPPRLPRPRPRPGKMPRP	-0.0839
RRIRQRPPRLPRPRPRPKYWPRP	-0.309
RRIRWRPPRLPRPRPRPPVHPRP	-0.221
RRIRNRPPRLPRPRPRPVGPPRP	0.448
RRIRPRPPRLPRPRPRPDPGPRP	0.0845
RRIRYRPPRLPRPRPRPCFTPRP	-0.941
RRIRFRPPRLPRPRPRPRLMPRP	-0.0982
RRIRYRPPRLPRPRPRPTITPRP	-0.665
RRIRQRPPRLPRPRPRPQWQPRP	0.16
RRIRLRPPRLPRPRPRPGVSPRP	-0.161
RRIRVRPPRLPRPRPRPLCAPRP	0.17
RRIRERPPRLPRPRPRPCNFPRP	-0.125
RRIRARPPRLPRPRPRPNVQPRP	0.109
RRIRPRPPRLPRPRPRPAWLPRP	0.513
RRIRRRPPRLPRPRPRPNRLPRP	0.523
RRIRIRPPRLPRPRPRPVIHPRP	-0.248
RRIRGRPPRLPRPRPRPPGEPRP	1.14
RRIRRRPPRLPRPRPRPPDAPRP	0.768
RRIRFRPPRLPRPRPRPQIGPRP	-0.128
RRIRHRPPRLPRPRPRPNNEPRP	-0.724
RRIRARPPRLPRPRPRPKFVPRP	0.301
RRIRYRPPRLPRPRPRPHRIPRP	-0.474
RRIRQRPPRLPRPRPRPCPAPRP	-0.00924

Sequence	shrunken log2 fold change
RRIRARPPRLPRPRPRPSVQPRP	0.629
RRIRGRPPRLPRPRPRPQRKPRP	0.471
RRIRQRPPRLPRPRPRPKNAPRP	0.0178
RRIRPRPPRLPRPRPRPQMNPRP	-0.267
RRIRRRPPRLPRPRPRPIVYPRP	-0.00893
RRIRLRPPRLPRPRPRPTFKPRP	-0.0433
RRIRFRPPRLPRPRPRPFEKPRP	-0.0749
RRIRERPPRLPRPRPRPVEMPRP	0.139
RRIRTRPPRLPRPRPRPLTGPRP	-0.0139
RRIRPRPPRLPRPRPRPDNGPRP	-0.332
RRIRRRPPRLPRPRPRPGYEPRP	0.0872
RRIRSRPPRLPRPRPRPSKFPRP	-0.779
RRIRGRPPRLPRPRPRPGTGPRP	0.84
RRIRIRPPRLPRPRPRPFDHPRP	-0.225
RRIRKRPPRLPRPRPRPFKNPRP	-0.0646
RRIRSRPPRLPRPRPRPYAVPRP	-0.137
RRIRARPPRLPRPRPRPEYNPRP	0.102
RRIRIRPPRLPRPRPRPWIAPRP	-0.717
RRIRSRPPRLPRPRPRPCWFPRP	-0.0822
RRIRCRPPRLPRPRPRPLWLPRP	-0.0572
RRIRVRPPRLPRPRPRPMYKPRP	-0.608
RRIRRRPPRLPRPRPRPCWDPRP	0.234
RRIRRRPPRLPRPRPRPMYIPRP	-0.73
RRIRTRPPRLPRPRPRPKGQPRP	0.0118
RRIRSRPPRLPRPRPRPISDPRP	0.103

Sequence	shrunken log2 fold change
RRIRHRPPRLPRPRPRPDGTPRP	-0.0362
RRIRPRPPRLPRPRPRPTHNPRP	0.199
RRIRARPPRLPRPRPRPFDSPRP	-0.0745
RRIRARPPRLPRPRPRPPDKPRP	0.572
RRIRTRPPRLPRPRPRPSKMPRP	-0.793
RRIRCRPPRLPRPRPRPDNIPRP	-0.0703
RRIRRRPPRLPRPRPRPNEFPRP	-0.0247
RRIRTRPPRLPRPRPRPMWKPRP	0.00922
RRIRGRPPRLPRPRPRPCVMPRP	0.516
RRIRTRPPRLPRPRPRPDIQPRP	-0.531
RRIRMRPPRLPRPRPRPHITPRP	-0.374
RRIRPRPPRLPRPRPRPIIRPRP	-0.168
RRIRIRPPRLPRPRPRPCYAPRP	-0.68
RRIRARPPRLPRPRPRPSNAPRP	0.133
RRIRLRPPRLPRPRPRPMFVPRP	-0.354
RRIRWRPPRLPRPRPRPNKEPRP	-0.0697
RRIRDRPPRLPRPRPRPNIQPRP	-0.0288
RRIRSRPPRLPRPRPRPMKVPRP	-0.0404
RRIRERPPRLPRPRPRPTALPRP	-0.415
RRIRSRPPRLPRPRPRPLYFPRP	-0.682
RRIRDRPPRLPRPRPRPYEYPRP	-0.17
RRIRERPPRLPRPRPRPYFRPRP	-0.622
RRIRVRPPRLPRPRPRPAPIPRP	0.152
RRIRERPPRLPRPRPRPPRFPRP	0.26
RRIRTRPPRLPRPRPRPFCQPRP	0.101

Sequence	shrunken log2 fold change
RRIRIRPPRLPRPRPRPNRQPRP	-0.56
RRIRWRPPRLPRPRPRPTSKPRP	-0.0975
RRIRQRPPRLPRPRPRPYKFPRP	-0.0369
RRIRLRPPRLPRPRPRPAGLPRP	0.102
RRIRMRPPRLPRPRPRPGTNPRP	1.55
RRIRGRPPRLPRPRPRPALLPRP	1.14
RRIRLRPPRLPRPRPRPGVLPRP	0.204
RRIRGRPPRLPRPRPRPSNCPRP	0.0376
RRIRRRPPRLPRPRPRPMWPPRP	0.265
RRIRQRPPRLPRPRPRPNWLPRP	0.259
RRIRYRPPRLPRPRPRPLRSPRP	0.538
RRIRNRPPRLPRPRPRPPPKPRP	1.5
RRIRRRPPRLPRPRPRPQKEPRP	0.00366
RRIRERPPRLPRPRPRPHMLPRP	-0.376
RRIRKRPPRLPRPRPRPQEIPRP	0.0636
RRIRPRPPRLPRPRPRPSWVPRP	0.0466
RRIRVRPPRLPRPRPRPFAFPRP	-0.38
RRIRHRPPRLPRPRPRPPVHPRP	0.00286
RRIRWRPPRLPRPRPRPIRDPRP	0.0528
RRIRARPPRLPRPRPRPHPKPRP	0.508
RRIRKRPPRLPRPRPRPMPCPRP	-0.0242
RRIRNRPPRLPRPRPRPCYKPRP	-0.173
RRIRFRPPRLPRPRPRPHGPPRP	0.11
RRIRPRPPRLPRPRPRPDLQPRP	-0.221
RRIRVRPPRLPRPRPRPFNEPRP	-0.258
